Here are results for 16 molecules from patent US20240352133A1.

For assay [1], the target named is Recombinant human his-tagged IGF 1R extracellular domain protein (human) (UniProt P08069). The assay is described as follows: SPR, captured antibody, dissociation at pH 6. A general note: Surface plasmon resonance follows binding to a sensor surface in real time, without labels.
Assay [2] shares this target. The assay is described as follows: SPR, captured antibody, pH 7.4.

Usually Kd stands for the free concentration of one partner at which half of the binding sites on the other are occupied at equilibrium, for simple one-to-one binding. Broadly, the koff is a measure of how fast the partners let go of each other. By kon is commonly meant the rate constant with which the complex forms.

B1: VRDN-03115 (antibody, V domains shown)
VH: QVQLVESGGGVVQPGRSLRLSCAASGFTFSDHYMDWVRQAPGKGLEWVAIIWFDGSSKYYPGSVKGRFTISRDNSKNTLYLQMNSLRAEDTAVYYCARELGRRYFDIWGRGTLVTVSS
VL: EIVMTQSPATLSVSPGERATLSCRASQGVSSYLAWYQQKPGQAPRLLIYGASTRATGIPARFSGSGSGTEFTLTISSLQSEDFAVYYCQQRSRWPPWTFGQGTKLEIK
Take B1: in assay [1], the Kd was determined as 1.21 nM, the koff was 0.000297 s⁻¹ and the on-rate (kon) was found to be 246000 M⁻¹ s⁻¹.

B2: VRDN-03139 (antibody, V domains shown)
VH: EVQLVESGGGVVQPGRSLRLSCAASGFTFSDYTMHWVRQAPGKGLEWVAIIWFDGSSKYYADSVKSRFTISRDNSKNTLYLQMNSLRAEDTAVYYCARELGRRYFDIWGQGTLVTVSS
VL: EIVMTQSPATLSVSPGERATLSCRASQGVSSNLAWYQQKPGQAPRLLIYGASTRATGIPARFSGSGSGTEFTLTISSLQSEDFAVYYCQQRSRWPPWTFGGGTKLEIK
Take B2: in assay [2], the equilibrium dissociation constant (Kd) was 2.46 nM, the off-rate (koff) came to 0.000262 s⁻¹ and the on-rate (kon) amounted to 107000 M⁻¹ s⁻¹.

B3: VRDN-03134 (antibody, V domains shown)
VH: EVQLVESGGGVVQPGRSLRLSCAASGFTFSSYSMHWVRQAPGKGLEWVAVIWYDGSSKYYADSVKSRFTISRDNSKNTLYLQMNSLRAEDTAVYYCARELGRRYFDIWGQGTLVTVSS
VL: EIVMTQSPATLSVSPGERATLSCRASQGVSSNLAWYQQKPGQAPRLLIYGASTRATGIPARFSGSGSGTEFTLTISSLQSEDFAVYYCQQRSRWPPWTFGGGTKLEIK
In the case of B3, in assay [2], the Kd came out at 4.89 nM, the koff turned out to be 0.0012 s⁻¹ and the association rate constant (kon) was determined as 245000 M⁻¹ s⁻¹.

B4: VRDN-03137 (antibody, V domains shown)
VH: EVQLVESGGGVVQPGRSLRLSCAASGFTFDDYAMHWVRQAPGKGLEWVAVIWYDGSSKYYADSVKGRFTISRDNSKNTLYLQMNSLRAEDTAVYYCARELGRRYFDIWGQGTLVTVSS
VL: EIVMTQSPATLSVSPGERATLSCRASQGVSSNLAWYQQKPGQAPRLLIYGASTRATGIPARFSGSGSGTEFTLTISSLQSEDFAVYYCQQRSRWPPWTFGGGTKLEIK
As to B4, in assay [2], the Kd was determined as 15.1 nM, the koff came to 0.0142 s⁻¹ and the kon came to 940000 M⁻¹ s⁻¹.

B5: VRDN-03138 (antibody, V domains shown)
VH: EVQLVESGGGVVQPGRSLRLSCAASGFTFDDYTMHWVRQAPGKGLEWVAVIWYDGSSKYYADSVKGRFTISRDNSKNTLYLQMNSLRAEDTAVYYCARELGRRYFDIWGQGTLVTVSS
VL: EIVMTQSPATLSVSPGERATLSCRASQGVSSNLAWYQQKPGQAPRLLIYGASTRATGIPARFSGSGSGTEFTLTISSLQSEDFAVYYCQQRSRWPPWTFGGGTKLEIK
On to B5, for which, in assay [2], the Kd turned out to be 8.75 nM, the koff was determined as 0.00433 s⁻¹ and the kon was 495000 M⁻¹ s⁻¹.

B6: VRDN-03133 (antibody, V domains shown)
VH: EVQLVESGGGVVQPGRSLRLSCAASGFTFSSYSMHWVRQAPGKGLEWVAVIWYDGSSKYYADSVKSRFTISRDNSKNTLYLQMNSLRAEDTAVYYCARELGRRYFDIWGRGTLVTVSS
VL: EIVMTQSPATLSVSPGERATLSCRASQGVSSNLAWYQQKPGQAPRLLIYGASTRATGIPARFSGSGSGTEFTLTISSLQSEDFAVYYCQQRSRWPPWTFGGGTKLEIK
On to B6, for which, in assay [2], the equilibrium dissociation constant (Kd) was 6.51 nM, the off-rate constant (koff) is 0.00228 s⁻¹ and the association rate constant (kon) was determined as 350000 M⁻¹ s⁻¹.

B7: VRDN-03136 (antibody, V domains shown)
VH: EVQLVESGGGVVQPGRSLRLSCAASGFTFDDYTMHWVRQAPGKGLEWVAIIWFDGSSKYYADSVKGRFTISRDNSKNTLYLQMNSLRAEDTAVYYCARELGRRYFDIWGQGTLVTVSS
VL: EIVMTQSPATLSVSPGERATLSCRASQGVSSNLAWYQQKPGQAPRLLIYGASTRATGIPARFSGSGSGTEFTLTISSLQSEDFAVYYCQQRSRWPPWTFGGGTKLEIK
B7: in assay [2], the Kd stood at 2.84 nM, the koff was 0.000253 s⁻¹ and the on-rate constant (kon) worked out at 89100 M⁻¹ s⁻¹.

B8: VRDN-03135 (antibody, V domains shown)
VH: EVQLVESGGGVVQPGRSLRLSCAASGFTFDDYAMHWVRQAPGKGLEWVAIIWFDGSSKYYADSVKGRFTISRDNSKNTLYLQMNSLRAEDTAVYYCARELGRRYFDIWGQGTLVTVSS
VL: EIVMTQSPATLSVSPGERATLSCRASQGVSSNLAWYQQKPGQAPRLLIYGASTRATGIPARFSGSGSGTEFTLTISSLQSEDFAVYYCQQRSRWPPWTFGGGTKLEIK
On to B8, for which, in assay [2], the Kd was determined as 4.06 nM, the koff was found to be 0.000414 s⁻¹ and the kon was 102000 M⁻¹ s⁻¹.

B9: VRDN-03038 (antibody, V domains shown)
VH: QVELVESGGGVVQPGRSQRLSCAASGFTFSSYGMHWVRQAPGKGLEWVAIIWFDGSSTYYADSVRGRFTISRDNSKNTLYLQMNSLRAEDTAVYFCARELGRRYFDLWGRGTLVSVSS
VL: EIVLTQSPATLSLSPGERATLSCHASQSVSSYLAWYQQKPGQAPRLLIYDASKRATGIPARFSGSGSGTDFTLTISSLEPEDFAVYYCQQRSKWPPWTFGQGTKVESK
B9: in assay [2], the dissociation constant (Kd) was found to be 1.72 nM, the koff worked out at 0.000167 s⁻¹ and the kon turned out to be 96900 M⁻¹ s⁻¹. In assay [1], the Kd stood at 1.4 nM, the koff was determined as 0.000115 s⁻¹ and the kon was found to be 82000 M⁻¹ s⁻¹.

B10: VRDN-03045 (antibody, V domains shown)
VH: QVELVESGGGVVQPGRSQRLSCAASGFTFSSYGMHWVRQAPGKGLEWVAIIWFDGSSTYYADSVRGRFTISRDNSKNTLYLQMNSLRAEDTAVYFCARELGRRYFDLWGRGTLVSVSS
VL: EIVLTQSPATLSLSPGERATLSCRASQSVSHYLAWYQQKPGQAPRLLIYDASKRATGIPARFSGSGSGTDFTLTISSLEPEDFAVYYCQQRSKWPPWTFGQGTKVESK
As for B10, in assay [2], the Kd was found to be 1.29 nM, the off-rate (koff) amounted to 0.000135 s⁻¹ and the kon was 105000 M⁻¹ s⁻¹. In assay [1], the equilibrium dissociation constant (Kd) came out at 0.624 nM, the koff came to 5.02e-05 s⁻¹ and the association rate constant (kon) stood at 80500 M⁻¹ s⁻¹.

B11: VRDN-03046 (antibody, V domains shown)
VH: QVELVESGGGVVQPGRSQRLSCAASGFTFSSYGMHWVRQAPGKGLEWVAIIWFDGSSTYYADSVRGRFTISRDNSKNTLYLQMNSLRAEDTAVYFCARELGRRYFDLWGRGTLVSVSS
VL: EIVLTQSPATLSLSPGERATLSCRASQSVSSHLAWYQQKPGQAPRLLIYDASKRATGIPARFSGSGSGTDFTLTISSLEPEDFAVYYCQQRSKWPPWTFGQGTKVESK
For the molecule B11, in assay [2], the Kd worked out at 1.58 nM, the koff turned out to be 0.000162 s⁻¹ and the on-rate constant (kon) was 103000 M⁻¹ s⁻¹. Further, in assay [1], the Kd was 1.87 nM, the koff is 0.000159 s⁻¹ and the on-rate constant (kon) stood at 84800 M⁻¹ s⁻¹.

B12: VRDN-03042 (antibody, V domains shown)
VH: QVELVESGGGVVQPGRSQRLSCAASGFTFSSYGMHWVRQAPGKGLEWVAIIWFDGSSTYYADSVRGRFTISRDNSKNTLYLQMNSLRAEDTAVYFCARELGRRYFDLWGRGTLVSVSS
VL: EIVLTQSPATLSLSPGERATLSCRASQHVSSYLAWYQQKPGQAPRLLIYDASKRATGIPARFSGSGSGTDFTLTISSLEPEDFAVYYCQQRSKWPPWTFGQGTKVESK
For B12, in assay [2], the dissociation constant (Kd) was 1.53 nM, the koff is 0.000172 s⁻¹ and the kon is 112000 M⁻¹ s⁻¹. In assay [1], the Kd was 1.2 nM, the off-rate (koff) was determined as 9.44e-05 s⁻¹ and the kon came out at 78400 M⁻¹ s⁻¹.

B13: VRDN-03043 (antibody, V domains shown)
VH: QVELVESGGGVVQPGRSQRLSCAASGFTFSSYGMHWVRQAPGKGLEWVAIIWFDGSSTYYADSVRGRFTISRDNSKNTLYLQMNSLRAEDTAVYFCARELGRRYFDLWGRGTLVSVSS
VL: EIVLTQSPATLSLSPGERATLSCRASQSHSSYLAWYQQKPGQAPRLLIYDASKRATGIPARFSGSGSGTDFTLTISSLEPEDFAVYYCQQRSKWPPWTFGQGTKVESK
Take B13: in assay [2], the dissociation constant Kd was determined as 22.4 nM, the koff came out at 0.0111 s⁻¹ and the on-rate constant (kon) is 493000 M⁻¹ s⁻¹. Moreover, in assay [1], the equilibrium dissociation constant (Kd) came to 18.2 nM, the off-rate (koff) came out at 0.0253 s⁻¹ and the association rate constant (kon) stood at 1.39e+06 M⁻¹ s⁻¹.

B14: VRDN-03041 (antibody, V domains shown)
VH: QVELVESGGGVVQPGRSQRLSCAASGFTFSSYGMHWVRQAPGKGLEWVAIIWFDGSSTYYADSVRGRFTISRDNSKNTLYLQMNSLRAEDTAVYFCARELGRRYFDLWGRGTLVSVSS
VL: EIVLTQSPATLSLSPGERATLSCRASHSVSSYLAWYQQKPGQAPRLLIYDASKRATGIPARFSGSGSGTDFTLTISSLEPEDFAVYYCQQRSKWPPWTFGQGTKVESK
For B14, in assay [2], the dissociation constant (Kd) amounted to 3.16 nM, the off-rate constant (koff) was determined as 0.0003 s⁻¹ and the on-rate (kon) is 94900 M⁻¹ s⁻¹. In addition, in assay [1], the Kd was 0.556 nM, the off-rate constant (koff) is 3.61e-05 s⁻¹ and the kon is 65000 M⁻¹ s⁻¹.

B15: VRDN-03044 (antibody, V domains shown)
VH: QVELVESGGGVVQPGRSQRLSCAASGFTFSSYGMHWVRQAPGKGLEWVAIIWFDGSSTYYADSVRGRFTISRDNSKNTLYLQMNSLRAEDTAVYFCARELGRRYFDLWGRGTLVSVSS
VL: EIVLTQSPATLSLSPGERATLSCRASQSVHSYLAWYQQKPGQAPRLLIYDASKRATGIPARFSGSGSGTDFTLTISSLEPEDFAVYYCQQRSKWPPWTFGQGTKVESK
For B15, in assay [2], the equilibrium dissociation constant (Kd) was found to be 1.96 nM, the koff was found to be 0.000192 s⁻¹ and the on-rate constant (kon) came to 98400 M⁻¹ s⁻¹. Also, in assay [1], the Kd came out at 3.79 nM, the koff was 0.000217 s⁻¹ and the kon stood at 57300 M⁻¹ s⁻¹.

B16: VRDN-03039 (antibody, V domains shown)
VH: QVELVESGGGVVQPGRSQRLSCAASGFTFSSYGMHWVRQAPGKGLEWVAIIWFDGSSTYYADSVRGRFTISRDNSKNTLYLQMNSLRAEDTAVYFCARELGRRYFDLWGRGTLVSVSS
VL: EIVLTQSPATLSLSPGERATLSCRHSQSVSSYLAWYQQKPGQAPRLLIYDASKRATGIPARFSGSGSGTDFTLTISSLEPEDFAVYYCQQRSKWPPWTFGQGTKVESK
On to B16, for which, in assay [2], the Kd turned out to be 11.3 nM, the koff stood at 0.00332 s⁻¹ and the on-rate constant (kon) is 294000 M⁻¹ s⁻¹. Besides, in assay [1], the Kd was 14.3 nM, the koff was determined as 0.00563 s⁻¹ and the kon was determined as 394000 M⁻¹ s⁻¹.
